Source: patent publication US8460669B2, “Compositions and methods for identifying response targets and treating flavivirus infection responses” (Academia Sinica, priority 2005, dated 2013)
“Also recorded” adds a separate entry of the source.

Legend:
JEV = experiment: ELISA of DVLR1/CLEC5A.Fc interaction with JEV; format: binding, Japanese encephamyelitis virus; details: 1 μg; JEV 5×10^6 PFU
Experimental: Like with DV, JEV follows a similar virus infection response pattern, which is believed to be the same or similar in all flaviviruses. […] (1 μg), with JEV and DV (5×10^6 PFU), respectively, were determined by ELISA. DV interacts with human DVLR1/CLEC5A (187 amino acid in length) SEQ ID NO: 72, but not the alternatively spliced form sDVLR1/CLEC5A (aa 43-65 is deleted). SEQ ID NO: 73. […] DAP12 in DV-infected macrophages were precipitated by anti-DAP12 mAb, blotted to nitrocellulose paper after fractionation on SDS-PAGE, followed by incubation with antibodies against phosphotyrosine and DAP12, respectively. JEV-induced DAP12 phosphorylation (m.o.i.=5) is inhibited by pLL3.7/DVLR1/CLEC5A. […] JEV-induced TNF-α secretion is inhibited by […] mAb (right). Data are expressed as the mean±s.d. of three independent experiments.

Dengue virus [1] = experiment: Immunoprecipitation of Dengue virus with receptor.Fc; format: binding; details: receptor.Fc 5 μg; DV 5×10^6; listed as DVLR1/CLEC5A.Fc
Experimental: The results are depicted in FIG. 8A (** indicates p<0.01, *** indicates p<0.001 (Student's t test)). […] Specifically, 5×10^6 Dengue virus particles were incubated with 5 μg of each protein, and then Protein A beads were added. The resulting immunocomplexes were washed, separated by SDS-PAGE, and transferred onto nitrocellulose membrane. The membrane was then probed with biotinylated anti-DEN2 envelope protein antibody and developed with horseradish peroxidase-conjugated streptavidin.
In FIG. 16b, complexes of DV (5×10^6 PFU) with receptor.Fc (5 μg) were immunoprecipitated and detected on westerns with mAb to DV envelope (E) protein. […] FIGS. 16d and 16e show sugar competition assays wherein both DC-SIGN (CLEC4L) and DVLR1/CLEC5A increase DV binding to human 293T cells (FIG. 16d), while addition of sugars inhibits biotinylated DV binding to DC-SIGN- (left panel) or DLVR1/CLEC5A- (right panel) transfected 293T cells in a dose-dependent manner as determined by flow cytometry (FIG. 16e). According to FIG. 16e, MFI represents mean fluorescence intensity. Units (U) for monosaccharide (mannose and fucose) and polysaccharide (mannan) are mM and mg/ml, respectively. […] Data are expressed as the mean±s.d. of three independent experiments. Two-tailed, Student's t-tests were performed. […]

Dengue virus [2] = experiment: ELISA of receptor.Fc interaction with Dengue virus; format: binding; details: for binding to DV pretreated with heat or dithiothreitol: 95° C. 5 min or DTT 0.1 M; for binding to DV pretreated with PNGaseF: PNGaseF 500 U; for interaction of receptor.Fc with Dengue virus (ELISA): receptor.Fc 1 μg, DV 5×10^6
Experimental: One μg of each receptor.Fc fusion protein was coated onto microtiter plates overnight at 4° C. DV (5×10^6 particles) of strain 16681 (a DEN2 strain) in binding buffer (1% BSA, 2 mM CaCl2, 2 mM MgCl2, 50 mM Tris-HCl pH 7.5, 150 mM NaCl) was then added to the plates and the plates were incubated for 2 hours. After washing non-bound virus, a biotinylated anti-DEN2 envelope protein antibody (Wu et al., J Virol, 2002. 76(8): p. 3596-604) was applied to bind to the virus for 1 hour. Diluted horseradish peroxidase-conjugated streptavidin was then added to the plates, followed by a 1 hour incubation. TMB substrate was then added and the plates were read using an ELISA reader at OD450 nm.
The microtiter plate assay was repeated in the presence of EDTA (10 mM) to chelate Ca^++ cations.
The microtiter plate assay was also repeated for DVLR1/CLEC5A.Fc fusion protein with DV particles (5×10^6) that had been 1) preincubated with 500 U of the glycosidase PNGaseF (New England Biolabs, Inc.) overnight at 37° C.; or 2) treated with dithiothreitol (DTTI) (0.1M); or 3) incubated at 95° C. for 5 minutes; or 4) UV irradiated for 5 minutes. The results are shown in FIG. 8D (asterisks indicate where the binding affinity of DVLR1/CLEC5A.Fc fusion protein is altered by modification of the virus relative to non-treated virus; ** p<0.01, *** p<0.001, Student's t test). […]

[3] = Enzyme linked immunoassay of receptor.Fc fusions on immobilized GLPS-F3; format: binding, Ganoderma lucidum; details: GLPS-F3 100 ng/well; receptor.Fc 1 μg/ml
Experimental: The interactions of polysaccharides with receptor.Fc fusion proteins was further investigated by performing an enzyme-linked immunoassay, which was based on immobilizing GLPS-F3 through both hydrophilic and hydrophobic forces onto microtiter plates (polysytrene). In this format, the number of different receptor.Fc fusions for profiling was increased in comparison to Example 7. To optimize the quantity of GLPS-F3 for immobilization, various amounts (3-1000 ng/well, diluted in 100 mM Tris buffer, pH9.5) of biotinylated-GLPS-F3 (Biotin-GLPS-F3) were coated onto MaxiSorp StarWell microtiter plates (50 μL/well; Nunc). The plates were incubated overnight at 4° C., and then the wells were washed twice with TBST, followed by blocking with 200 μL blocking buffer (2% BSA/TBST) for 1 hour at room temperature. Peroxidase-conjugated avidin (1:5000 dilution, Vector Laboratories) and TMB (tetramethylbenzidine) substrate was then used for detection of immobilized biotinylated GLPS-F3.
The interaction between GLPS-F3 and receptor.Fc was then tested. […] Wells were incubated with 100 μL TMB substrate for 15 min after TBST washing and read at 450 nm in a Fusion plate reader (Perkin Elmer). […]

B1: Fc.MDL-1: extracellular domain of human DVLR1/CLEC5A (MDL-1) fused to the Fc portion of human IgG1 (protein)
chain: MNWHMIISGLIVVVLKVVGMTLFLLYFPQIFNKSNDGFTTTRSYGTVSQIFGSSSPSPNGFITTRSYGTVCPKDWEFYQARCFFLSTSESSWNESRDFCKGKGSTLAIVNTPEKLFLQDITDAEKYFIGLIYHREEKRWRWINNSVFNGNVTNQNQNFNCATIGLTKTFDAASCDISYRRICEKNAK
For B1, the “interaction with JEV (ELISA)” value (JEV) was “not”, the “immunoprecipitation of Dengue virus (E protein detected)” value (Dengue virus [1]) was “able to immunoprecipitate DV; also recorded: detected” and the “binding to DV pretreated with heat or dithiothreitol” value (Dengue virus [2]) was “abolish”. The “binding to DV pretreated with heat or dithiothreitol” value (Dengue virus [2]; listed as DVLR1/CLEC5A.Fc) was “almost completely inhibited”, the “Ca^++ dependence of binding to Dengue virus” value (Dengue virus [2]; EDTA 10 mM) was “Ca^++ independent; also recorded: no effect” and the “binding to DV pretreated with PNGaseF” value (Dengue virus [2]) was “substantially reduced”. The “binding to DV pretreated with PNGaseF” value (Dengue virus [2]; listed as DVLR1/CLEC5A.Fc) was “inhibited DVLR1/CLEC5A.Fc interaction significantly”, the “interaction of receptor.Fc with Dengue virus (ELISA)” value (Dengue virus [2]) was “binds; also recorded: interacts” and the “interaction of receptor.Fc with Dengue virus (ELISA)” value (Dengue virus [2]; listed as DVLR1/CLEC5A.Fc) was “able to capture DV2”. The “binding ability to GLPS-F3” value [3] was “minimal binding ability”.
